From publication PMC5806882, “Structural and biochemical characterization of the biuret hydrolase (BiuH) from the cyanuric acid catabolism pathway of Rhizobium leguminasorum bv. viciae 3841” (PLoS ONE, 2018)

Key:
[1] = tested on: T1, NC(=O)NC(N)=O; assay: GDH-coupled steady-state kinetics (KM); format: biochemical, Rhizobium johnstonii; conditions: active site
T1 construct: wild type, N-terminal 6xHis-tag

[2] = tested on: NC(=O)NC(N)=O; assay: GDH-coupled steady-state kinetics (KM); format: biochemical, Rhizobium johnstonii; conditions: active site

biuret hydrolase (BiuH) (Rhizobium johnstonii 3841; F41W), sequence (chain, as listed by the source F41W): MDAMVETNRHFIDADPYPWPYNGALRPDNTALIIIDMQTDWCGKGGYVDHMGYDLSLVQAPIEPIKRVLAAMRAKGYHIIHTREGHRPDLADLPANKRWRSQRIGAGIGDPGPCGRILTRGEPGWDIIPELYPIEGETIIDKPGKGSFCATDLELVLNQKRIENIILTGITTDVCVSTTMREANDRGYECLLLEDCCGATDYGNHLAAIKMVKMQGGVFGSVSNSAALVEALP
biuret hydrolase (BiuH) (Rhizobium johnstonii 3841; K142R), sequence (chain, as listed by the source K142R): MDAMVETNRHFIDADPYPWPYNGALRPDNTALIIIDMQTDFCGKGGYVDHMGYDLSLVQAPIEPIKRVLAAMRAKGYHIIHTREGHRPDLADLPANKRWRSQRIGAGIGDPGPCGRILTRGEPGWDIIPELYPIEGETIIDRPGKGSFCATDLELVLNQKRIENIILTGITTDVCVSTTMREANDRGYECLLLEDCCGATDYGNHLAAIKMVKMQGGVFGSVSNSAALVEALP
biuret hydrolase (BiuH) (Rhizobium johnstonii 3841), sequence (chain, as listed by the source): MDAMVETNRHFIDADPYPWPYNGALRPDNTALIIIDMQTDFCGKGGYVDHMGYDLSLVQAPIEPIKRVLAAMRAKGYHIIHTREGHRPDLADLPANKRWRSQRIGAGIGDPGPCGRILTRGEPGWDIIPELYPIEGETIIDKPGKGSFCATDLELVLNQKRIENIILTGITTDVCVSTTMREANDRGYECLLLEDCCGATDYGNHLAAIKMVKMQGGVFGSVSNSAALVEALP
biuret hydrolase (BiuH) (Rhizobium johnstonii 3841; Q215N), sequence (chain, as listed by the source Q215N): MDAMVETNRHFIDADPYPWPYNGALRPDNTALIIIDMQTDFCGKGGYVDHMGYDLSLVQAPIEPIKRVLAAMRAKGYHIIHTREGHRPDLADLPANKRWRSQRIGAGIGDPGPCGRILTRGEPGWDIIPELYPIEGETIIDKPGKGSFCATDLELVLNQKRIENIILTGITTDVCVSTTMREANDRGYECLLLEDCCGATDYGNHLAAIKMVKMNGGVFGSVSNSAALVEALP

biuret hydrolase (BiuH) (Rhizobium johnstonii 3841)
Km [1]: 79 ± 7 µM | kcat [1]: 11.9 ± 0.3 s⁻¹ | kcat/Km [1]: 150000 M⁻¹ s⁻¹

biuret hydrolase (BiuH) (Rhizobium johnstonii 3841; F41W)
Km [2]: 127 ± 8 µM | kcat [2]: 0.26 ± 0.003 s⁻¹ | kcat/Km [2]: 2050 M⁻¹ s⁻¹

biuret hydrolase (BiuH) (Rhizobium johnstonii 3841; K142R)
Km [2]: 139 ± 8 µM | kcat [2]: 0.07 ± 0.001 s⁻¹ | kcat/Km [2]: 504 M⁻¹ s⁻¹

biuret hydrolase (BiuH) (Rhizobium johnstonii 3841; Q215N)
Km [2]: 48 ± 2 µM | kcat [2]: 0.19 ± 0.002 s⁻¹ | kcat/Km [2]: 3960 M⁻¹ s⁻¹
